Data: patent publication US20250043028A1 (Hoffmann-La Roche, published 2025)

Assays:
[1] = biological target: human MCSP expressed on tumor cells (Colo-38, WM266-4, MV-3) (human, UniProt Q6UVK1 30-2322); experiment: cell-based or functional assay
[2] = biological target: T1, human CEA expressed on tumor cells (LS-174T, MKN-45, MC38-huCEA) (human, UniProt P06731 35-685); experiment: cell-based or functional assay
T1 sequence (looked up): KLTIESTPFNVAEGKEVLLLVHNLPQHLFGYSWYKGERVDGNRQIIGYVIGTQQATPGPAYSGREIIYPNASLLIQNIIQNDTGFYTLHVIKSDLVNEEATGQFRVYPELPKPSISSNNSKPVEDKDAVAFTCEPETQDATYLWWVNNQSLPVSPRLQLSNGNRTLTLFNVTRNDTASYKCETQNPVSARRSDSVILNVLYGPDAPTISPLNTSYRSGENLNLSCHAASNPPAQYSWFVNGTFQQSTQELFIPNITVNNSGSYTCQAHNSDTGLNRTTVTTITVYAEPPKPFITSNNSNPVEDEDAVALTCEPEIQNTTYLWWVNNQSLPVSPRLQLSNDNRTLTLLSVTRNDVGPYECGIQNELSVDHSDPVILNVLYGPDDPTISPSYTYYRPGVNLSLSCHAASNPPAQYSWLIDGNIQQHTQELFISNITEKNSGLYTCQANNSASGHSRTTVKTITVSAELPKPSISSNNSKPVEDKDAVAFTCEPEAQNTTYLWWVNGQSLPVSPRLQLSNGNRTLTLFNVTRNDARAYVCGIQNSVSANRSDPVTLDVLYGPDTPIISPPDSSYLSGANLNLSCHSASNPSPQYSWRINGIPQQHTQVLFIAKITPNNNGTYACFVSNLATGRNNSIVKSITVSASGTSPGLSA

Sequence of human MCSP expressed on tumor cells (Colo-38, WM266-4, MV-3) (Q6UVK1 30-2322): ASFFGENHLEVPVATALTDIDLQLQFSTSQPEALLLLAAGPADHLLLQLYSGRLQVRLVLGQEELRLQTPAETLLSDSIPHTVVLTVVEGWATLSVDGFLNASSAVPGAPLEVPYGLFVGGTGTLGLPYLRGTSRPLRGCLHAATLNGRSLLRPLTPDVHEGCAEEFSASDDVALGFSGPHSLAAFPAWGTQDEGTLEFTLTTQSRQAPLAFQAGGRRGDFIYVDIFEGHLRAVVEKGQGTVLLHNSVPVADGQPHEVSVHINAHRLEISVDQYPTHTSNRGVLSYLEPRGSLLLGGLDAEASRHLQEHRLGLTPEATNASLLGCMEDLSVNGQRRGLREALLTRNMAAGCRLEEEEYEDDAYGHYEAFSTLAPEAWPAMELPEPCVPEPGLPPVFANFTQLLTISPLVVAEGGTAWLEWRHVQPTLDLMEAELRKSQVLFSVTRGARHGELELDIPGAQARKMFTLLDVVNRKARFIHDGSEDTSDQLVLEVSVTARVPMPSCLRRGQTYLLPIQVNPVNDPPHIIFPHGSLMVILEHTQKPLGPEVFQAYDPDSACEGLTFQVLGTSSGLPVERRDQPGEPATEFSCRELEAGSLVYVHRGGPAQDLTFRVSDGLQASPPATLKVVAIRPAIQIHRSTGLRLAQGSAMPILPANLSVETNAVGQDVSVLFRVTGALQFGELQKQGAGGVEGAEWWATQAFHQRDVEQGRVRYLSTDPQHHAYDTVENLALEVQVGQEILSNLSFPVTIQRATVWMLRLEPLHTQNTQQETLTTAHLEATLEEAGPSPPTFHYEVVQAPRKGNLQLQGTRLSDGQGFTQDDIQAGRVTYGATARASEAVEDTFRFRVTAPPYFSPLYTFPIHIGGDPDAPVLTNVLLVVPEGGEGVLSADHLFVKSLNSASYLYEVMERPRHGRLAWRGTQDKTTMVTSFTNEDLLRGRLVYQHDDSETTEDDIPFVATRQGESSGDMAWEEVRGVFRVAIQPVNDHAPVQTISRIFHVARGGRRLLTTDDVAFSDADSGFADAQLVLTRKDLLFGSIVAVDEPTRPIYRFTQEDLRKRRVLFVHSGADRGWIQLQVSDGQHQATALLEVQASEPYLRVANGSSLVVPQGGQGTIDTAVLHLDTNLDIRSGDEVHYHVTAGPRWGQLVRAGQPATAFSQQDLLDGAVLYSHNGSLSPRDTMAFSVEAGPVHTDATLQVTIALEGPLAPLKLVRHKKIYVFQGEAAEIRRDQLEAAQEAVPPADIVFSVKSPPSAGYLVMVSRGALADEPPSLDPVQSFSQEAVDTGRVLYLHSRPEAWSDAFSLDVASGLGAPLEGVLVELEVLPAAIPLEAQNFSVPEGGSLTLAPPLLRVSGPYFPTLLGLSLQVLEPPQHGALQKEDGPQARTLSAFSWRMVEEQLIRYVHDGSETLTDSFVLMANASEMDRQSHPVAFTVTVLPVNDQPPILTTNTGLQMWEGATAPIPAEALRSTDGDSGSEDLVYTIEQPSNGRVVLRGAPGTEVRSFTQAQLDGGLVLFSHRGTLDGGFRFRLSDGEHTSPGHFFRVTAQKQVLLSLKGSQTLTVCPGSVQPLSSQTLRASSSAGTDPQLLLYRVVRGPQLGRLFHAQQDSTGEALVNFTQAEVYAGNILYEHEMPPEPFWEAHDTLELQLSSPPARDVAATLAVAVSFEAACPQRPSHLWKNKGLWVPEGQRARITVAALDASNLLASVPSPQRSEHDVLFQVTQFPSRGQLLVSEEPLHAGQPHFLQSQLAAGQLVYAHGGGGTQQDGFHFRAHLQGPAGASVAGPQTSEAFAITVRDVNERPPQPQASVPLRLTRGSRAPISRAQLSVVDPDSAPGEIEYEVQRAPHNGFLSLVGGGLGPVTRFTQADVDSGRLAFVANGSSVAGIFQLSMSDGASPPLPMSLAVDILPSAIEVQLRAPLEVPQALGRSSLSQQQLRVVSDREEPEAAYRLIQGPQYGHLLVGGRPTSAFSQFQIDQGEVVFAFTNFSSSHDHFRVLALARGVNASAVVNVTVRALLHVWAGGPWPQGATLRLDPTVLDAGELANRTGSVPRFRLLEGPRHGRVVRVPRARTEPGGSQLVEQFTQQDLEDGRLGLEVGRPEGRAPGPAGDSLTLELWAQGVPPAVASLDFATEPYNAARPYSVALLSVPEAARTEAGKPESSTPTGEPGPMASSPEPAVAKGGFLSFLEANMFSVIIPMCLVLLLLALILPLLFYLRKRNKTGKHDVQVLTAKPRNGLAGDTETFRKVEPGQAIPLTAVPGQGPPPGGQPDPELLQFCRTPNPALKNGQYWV

| Binder | EC50 of killing (LDH release) of MV-3 cells, human PBMCs, E:T 10:1, 21 h [1] [nM] | EC50 of killing (LDH release) of WM266-4 cells, human PBMCs, E:T 10:1, 21 h [1] [nM] | EC50 of killing (LDH release) of MV-3 cells, human PBMCs, E:T 10:1, 27 h [1] [nM] | EC50 of killing (LDH release) of WM266-4 cells, human PBMCs, E:T 10:1, 26 h [1] [nM] | also measured |
| --- | --- | --- | --- | --- | --- |
| “1+1 IgG Crossfab”; VL/VH exchange (LC007/V9) (anti-MCSP/anti-huCD3) (bispecific antibody) chain 1: DIVLTQSPSSLSASLGDRVTISCSASQGIRNYLNWYQQRPDGTVKLLIYYTSSLHSGVPSRFSGSGSGTDYSLTISNLEPEDIATYYCQQYSKLPWTFGGGTKLEIKRTVAAPSVFIFPPSDEQLKSGTASVVCLLNNFYPREAKVQWKVDNALQSGNSQESVTEQDSKDSTYSLSSTLTLSKADYEKHKVYACEVTHQGLSSPVTKSFNRGEC chain 2: DIQMTQSPSSLSASVGDRVTITCRASQDIRNYLNWYQQKPGKAPKLLIYYTSRLESGVPSRFSGSGSGTDYTLTISSLQPEDFATYYCQQGNTLPWTFGQGTKVEIKSSASTKGPSVFPLAPSSKSTSGGTAALGCLVKDYFPEPVTVSWNSGALTSGVHTFPAVLQSSGLYSLSSVVTVPSSSLGTQTYICNVNHKPSNTKVDKKVEPKSCGGGGSGGGGSEVQLQESGPGLVKPSQSLSLTCSVTGYSITSGYYWNWIRQFPGNKLEWMGYITYDGSNNYNPSLKNRISITRDTSKNQFFLKLNSVTTEDTATYYCADFDYWGQGTTLTVSSASTKGPSVFPLAPSSKSTSGGTAALGCLVKDYFPEPVTVSWNSGALTSGVHTFPAVLQSSGLYSLSSVVTVPSSSLGTQTYICNVNHKPSNTKVDKKVEPKSCDKTHTCPPCPAPEAAGGPSVFLFPPKPKDTLMISRTPEVTCVVVDVSHEDPEVKFNWYVDGVEVHNAKTKPREEQYNSTYRVVSVLTVLHQDWLNGKEYKCKVSNKALGAPIEKTISKAKGQPREPQVCTLPPSRDELTKNQVSLSCAVKGFYPSDIAVEWESNGQPENNYKTTPPVLDSDGSFFLVSKLTVDKSRWQQGNVFSCSVMHEALHNHYTQKSLSLSPGK chain 3: EVQLVESGGGLVQPGGSLRLSCAASGYSFTGYTMNWVRQAPGKGLEWVALINPYKGVSTYNQKFKDRFTISVDKSKNTAYLQMNSLRAEDTAVYYCARSGYYGDSDWYFDVWGQGTLVTVSSASVAAPSVFIFPPSDEQLKSGTASVVCLLNNFYPREAKVQWKVDNALQSGNSQESVTEQDSKDSTYSLSSTLTLSKADYEKHKVYACEVTHQGLSSPVTKSFNRGEC chain 4: not shown | 0.0409 | 0.0284 |  |  |  |
| “2+1 IgG Crossfab”; VL/VH exchange (M4-3 ML2/V9) (anti-MCSP/anti-huCD3) (bispecific antibody) chain 1: EVQLVESGGGLVQPGGSLRLSCAASGYSFTGYTMNWVRQAPGKGLEWVALINPYKGVSTYNQKFKDRFTISVDKSKNTAYLQMNSLRAEDTAVYYCARSGYYGDSDWYFDVWGQGTLVTVSSASVAAPSVFIFPPSDEQLKSGTASVVCLLNNFYPREAKVQWKVDNALQSGNSQESVTEQDSKDSTYSLSSTLTLSKADYEKHKVYACEVTHQGLSSPVTKSFNRGEC chain 2: not shown chain 3: not shown chain 4: QVQLQESGPGLVKPSQTLSLTCTVSGGSITSGYYWNWIRQHPGKGLEWIGYITYDGSNNYNPSLKSRVTISRDTSKNQFSLKLSSVTAADTAVYYCADFDYWGQGTLVTVSSASTKGPSVFPLAPSSKSTSGGTAALGCLVKDYFPEPVTVSWNSGALTSGVHTFPAVLQSSGLYSLSSVVTVPSSSLGTQTYICNVNHKPSNTKVDKKVEPKSCDKTHTCPPCPAPEAAGGPSVFLFPPKPKDTLMISRTPEVTCVVVDVSHEDPEVKFNWYVDGVEVHNAKTKPREEQYNSTYRVVSVLTVLHQDWLNGKEYKCKVSNKALGAPIEKTISKAKGQPREPQVCTLPPSRDELTKNQVSLSCAVKGFYPSDIAVEWESNGQPENNYKTTPPVLDSDGSFFLVSKLTVDKSRWQQGNVFSCSVMHEALHNHYTQKSLSLSPGK |  |  | ~0.0822 | 0.0168 |  |
| “1+1 CrossMab”; CL/CH1 exchange (LC007/V9) (anti-MCSP/anti-huCD3) (bispecific antibody) chain 1: DIVLTQSPSSLSASLGDRVTISCSASQGIRNYLNWYQQRPDGTVKLLIYYTSSLHSGVPSRFSGSGSGTDYSLTISNLEPEDIATYYCQQYSKLPWTFGGGTKLEIKRTVAAPSVFIFPPSDEQLKSGTASVVCLLNNFYPREAKVQWKVDNALQSGNSQESVTEQDSKDSTYSLSSTLTLSKADYEKHKVYACEVTHQGLSSPVTKSFNRGEC chain 2: EVQLQESGPGLVKPSQSLSLTCSVTGYSITSGYYWNWIRQFPGNKLEWMGYITYDGSNNYNPSLKNRISITRDTSKNQFFLKLNSVTTEDTATYYCADFDYWGQGTTLTVSSASTKGPSVFPLAPSSKSTSGGTAALGCLVKDYFPEPVTVSWNSGALTSGVHTFPAVLQSSGLYSLSSVVTVPSSSLGTQTYICNVNHKPSNTKVDKKVEPKSCDKTHTCPPCPAPEAAGGPSVFLFPPKPKDTLMISRTPEVTCVVVDVSHEDPEVKFNWYVDGVEVHNAKTKPREEQYNSTYRVVSVLTVLHQDWLNGKEYKCKVSNKALGAPIEKTISKAKGQPREPQVCTLPPSRDELTKNQVSLSCAVKGFYPSDIAVEWESNGQPENNYKTTPPVLDSDGSFFLVSKLTVDKSRWQQGNVFSCSVMHEALHNHYTQKSLSLSPGK chain 3: DIQMTQSPSSLSASVGDRVTITCRASQDIRNYLNWYQQKPGKAPKLLIYYTSRLESGVPSRFSGSGSGTDYTLTISSLQPEDFATYYCQQGNTLPWTFGQGTKVEIKSSASTKGPSVFPLAPSSKSTSGGTAALGCLVKDYFPEPVTVSWNSGALTSGVHTFPAVLQSSGLYSLSSVVTVPSSSLGTQTYICNVNHKPSNTKVDKKVEPKSC chain 4: not shown | 0.0884 | 0.0539 |  |  |  |
| “1+1 IgG Crossfab light chain (LC) fusion” (CH1A1A/V9) (anti-CEA/anti-huCD3) (bispecific antibody) chain 1: DIQMTQSPSSLSASVGDRVTITCRASQDIRNYLNWYQQKPGKAPKLLIYYTSRLESGVPSRFSGSGSGTDYTLTISSLQPEDFATYYCQQGNTLPWTFGQGTKVEIKSSASTKGPSVFPLAPSSKSTSGGTAALGCLVKDYFPEPVTVSWNSGALTSGVHTFPAVLQSSGLYSLSSVVTVPSSSLGTQTYICNVNHKPSNTKVDKKVEPKSC chain 2: DIQMTQSPSSLSASVGDRVTITCKASAAVGTYVAWYQQKPGKAPKLLIYSASYRKRGVPSRFSGSGSGTDFTLTISSLQPEDFATYYCHQYYTYPLFTFGQGTKLEIKRTVAAPSVFIFPPSDEQLKSGTASVVCLLNNFYPREAKVQWKVDNALQSGNSQESVTEQDSKDSTYSLSSTLTLSKADYEKHKVYACEVTHQGLSSPVTKSFNRGECGGGGSGGGGSGGGGSGGGGSEVQLVESGGGLVQPGGSLRLSCAASGYSFTGYTMNWVRQAPGKGLEWVALINPYKGVSTYNQKFKDRFTISVDKSKNTAYLQMNSLRAEDTAVYYCARSGYYGDSDWYFDVWGQGTLVTVSSASVAAPSVFIFPPSDEQLKSGTASVVCLLNNFYPREAKVQWKVDNALQSGNSQESVTEQDSKDSTYSLSSTLTLSKADYEKHKVYACEVTHQGLSSPVTKSFNRGEC chain 3: not shown chain 4: DKTHTCPPCPAPEAAGGPSVFLFPPKPKDTLMISRTPEVTCVVVDVSHEDPEVKFNWYVDGVEVHNAKTKPREEQYNSTYRVVSVLTVLHQDWLNGKEYKCKVSNKALGAPIEKTISKAKGQPREPQVCTLPPSRDELTKNQVSLSCAVKGFYPSDIAVEWESNGQPENNYKTTPPVLDSDGSFFLVSKLTVDKSRWQQGNVFSCSVMHEALHNHYTQKSLSLSPGK |  |  |  |  | EC50 of apoptosis induction (LDH release) in LS-174T cells, human PBMCs, E:T 10:1, 28 h [2]: 1.56 nM; EC50 of apoptosis induction (LDH release) in MC38-huCEA cells, human PBMCs, E:T 10:1, 24 h [2]: ~3.2 nM; EC50 of apoptosis induction (LDH release) in MKN-45 cells, human PBMCs, E:T 10:1, 28 h [2]: 0.213 nM |
| “2+1 IgG Crossfab”; CL/CH1 exchange (M4-3 ML2/V9) (anti-MCSP/anti-huCD3) (bispecific antibody) chain 1: DIQMTQSPSSLSASVGDRVTITCRASQDIRNYLNWYQQKPGKAPKLLIYYTSRLESGVPSRFSGSGSGTDYTLTISSLQPEDFATYYCQQGNTLPWTFGQGTKVEIKSSASTKGPSVFPLAPSSKSTSGGTAALGCLVKDYFPEPVTVSWNSGALTSGVHTFPAVLQSSGLYSLSSVVTVPSSSLGTQTYICNVNHKPSNTKVDKKVEPKSC chain 2: not shown chain 3: QVQLQESGPGLVKPSQTLSLTCTVSGGSITSGYYWNWIRQHPGKGLEWIGYITYDGSNNYNPSLKSRVTISRDTSKNQFSLKLSSVTAADTAVYYCADFDYWGQGTLVTVSSASTKGPSVFPLAPSSKSTSGGTAALGCLVKDYFPEPVTVSWNSGALTSGVHTFPAVLQSSGLYSLSSVVTVPSSSLGTQTYICNVNHKPSNTKVDKKVEPKSCDKTHTCPPCPAPEAAGGPSVFLFPPKPKDTLMISRTPEVTCVVVDVSHEDPEVKFNWYVDGVEVHNAKTKPREEQYNSTYRVVSVLTVLHQDWLNGKEYKCKVSNKALGAPIEKTISKAKGQPREPQVCTLPPSRDELTKNQVSLSCAVKGFYPSDIAVEWESNGQPENNYKTTPPVLDSDGSFFLVSKLTVDKSRWQQGNVFSCSVMHEALHNHYTQKSLSLSPGK chain 4: not shown |  |  | ~0.0117 | 0.0129 |  |
